In PMC10853802, “ESRP1 controls biogenesis and function of a large abundant multiexon circRNA”:

T1: ESRP1 qRRM2 R397A (human, UniProt Q6NXG1 312-430, R397A)
T1 sequence: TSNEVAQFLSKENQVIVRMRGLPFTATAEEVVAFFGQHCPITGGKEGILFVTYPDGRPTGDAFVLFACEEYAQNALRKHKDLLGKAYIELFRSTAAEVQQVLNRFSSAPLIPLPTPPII

T2: ESRP1 qRRM2 Y398A (human, UniProt Q6NXG1 312-430, Y398A)
T2 sequence: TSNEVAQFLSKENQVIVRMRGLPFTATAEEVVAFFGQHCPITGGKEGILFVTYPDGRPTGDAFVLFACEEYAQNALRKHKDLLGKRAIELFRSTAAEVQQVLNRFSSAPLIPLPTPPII

T3: ESRP1 qRRM2 F335A (human, UniProt Q6NXG1 312-430, F335A)
T3 sequence: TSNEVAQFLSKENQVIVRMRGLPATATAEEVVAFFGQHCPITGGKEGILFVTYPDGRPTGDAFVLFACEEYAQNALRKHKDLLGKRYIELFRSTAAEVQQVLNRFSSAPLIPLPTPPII

T4: ESRP1 qRRM2 WT (human, UniProt Q6NXG1 312-430)
T4 sequence: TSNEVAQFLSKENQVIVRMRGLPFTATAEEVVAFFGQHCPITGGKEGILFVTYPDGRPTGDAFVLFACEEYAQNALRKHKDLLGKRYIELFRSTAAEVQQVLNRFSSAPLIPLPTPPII

B1: 6-mer RNA (ssRNA)
RNA: UGGUGG
B2: 12-mer RNA (ssRNA)
RNA: UGGUGGUGGUGG

Legend:
Conditions in all cases: protein: recombinant; tags: His-SUMO removed by Ulp1
ESRP1 qRRM2 R397A = molecular target: T1, ESRP1 qRRM2 R397A; test: ITC; ITC: 100 mM NaCl, 10 mM Tris-HCl pH 8.0, 25 C; 300 uM protein injected into 20 uM RNA
ESRP1 qRRM2 Y398A = molecular target: T2, ESRP1 qRRM2 Y398A; test: as above
ESRP1 qRRM2 F335A = molecular target: T3, ESRP1 qRRM2 F335A; test: as above
ESRP1 qRRM2 WT = molecular target: T4, ESRP1 qRRM2 WT; test: X-ray crystallography (1.65 A); ITC: 100 mM NaCl, 10 mM Tris-HCl pH 8.0, 25 C; 300 uM protein injected into 20 uM RNA

Binder | binding result (ESRP1 qRRM2 R397A) | binding result (ESRP1 qRRM2 Y398A) | binding result (ESRP1 qRRM2 F335A) | binding result (ESRP1 qRRM2 WT)
B1 | no binding | no binding | no binding | 
B2 |  |  |  | binds
